Experimental data published in the supplement of paper PMC10567573.

B1: STK38L (parent)
chain: NWKETLVFPPEVPISEKAKDLILR
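Further: lentivirally expressed fusions sorted by FACS into six bins by GFP to DsRed ratio, PSI derived from sequencing read proportions per bin multiplied by bin number.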

Variants of: B1
Test: protein stability index of a GFP-peptide fusion (GPS, HEK-293T) (PSI 1-6); higher = more stable
Conditions: c terminus: a fixed tail appended
Work on V12K yielded a protein stability index of 3.76. Work on V12Q yielded a protein stability index of 2.89. In the case of V12S, the protein stability index is reported as 3.86. For V12D, the protein stability index was 3.55. With V12P the protein stability index was 3.48. V12H gave a protein stability index of 2.72. V12F gave a protein stability index of 3.05. Variant V12L has a protein stability index of 2.67. In the case of V12T, the protein stability index is reported as 2.97. For V12W, the protein stability index was 3.95. Work on V12M yielded a protein stability index of 3.15. Work on V12Y yielded a protein stability index of 2.62. Work on V12E yielded a protein stability index of 3.72. In the case of V12N, the protein stability index is reported as 3.26. For V12R, the protein stability index was 3.92. V12G gave a protein stability index of 2.92. V12C showed a protein stability index of 2.73. V12I showed a protein stability index of 3.52. With E11W the protein stability index was 2.63. Work on E11V yielded a protein stability index of 3.03. With E11Y the protein stability index was 2.21. P13C showed a protein stability index of 2.37. In the case of P13M, the protein stability index is reported as 2.36. P13V showed a protein stability index of 3.67. Work on P13D yielded a protein stability index of 3.4. Variant P13R has a protein stability index of 2.57. Work on P13T yielded a protein stability index of 2.44. With P13Y the protein stability index was 1.97. In the case of P13E, the protein stability index is reported as 3.1. For P13N, the protein stability index was 3.27. Variant P13F has a protein stability index of 2.35. P13G gave a protein stability index of 3.1. Work on P13H yielded a protein stability index of 2.9. In the case of P13L, the protein stability index is reported as 2.42. Variant P13K has a protein stability index of 2.46. Work on P13S yielded a protein stability index of 3.92. Variant E16R has a protein stability index of 2.48. For E16F, the protein stability index was 2.04. E16G gave a protein stability index of 2.31. For E16H, the protein stability index was 2.34. For E16A, the protein stability index was 2.66. E16K showed a protein stability index of 2.17. For E16N, the protein stability index was 3.3. With E16V the protein stability index was 3.14. E16P showed a protein stability index of 3.02. E16M showed a protein stability index of 1.66. E16Y gave a protein stability index of 2.5. E16T showed a protein stability index of 2.6. E16I gave a protein stability index of 2.14. Variant E16S has a protein stability index of 2.33. For E16C, the protein stability index was 2.7. E16Q showed a protein stability index of 2.43. Work on E16D yielded a protein stability index of 3.64. L21H gave a protein stability index of 3.48. With L21A the protein stability index was 3.35. For L21C, the protein stability index was 3.62. Work on L21E yielded a protein stability index of 4.66. L21G showed a protein stability index of 3.81. L21F gave a protein stability index of 2.63. For L21D, the protein stability index was 3.72. K19A gave a protein stability index of 2.69. With K19H the protein stability index was 2.78. For K19Y, the protein stability index was 2.29. K19T showed a protein stability index of 3.41. For K19R, the protein stability index was 2.96. With K19S the protein stability index was 3.53. K19I showed a protein stability index of 2.01. In the case of K19Q, the protein stability index is reported as 2.86. In the case of K19M, the protein stability index is reported as 2.19. K19D gave a protein stability index of 3.38. For K19C, the protein stability index was 2.87. With K19G the protein stability index was 2.96. In the case of K19W, the protein stability index is reported as 2.26. K19E showed a protein stability index of 3.77. K19F showed a protein stability index of 1.95. K19P gave a protein stability index of 3.17. K19L gave a protein stability index of 1.49. For K19N, the protein stability index was 3.07. Work on K17M yielded a protein stability index of 2.85. K17C gave a protein stability index of 2.81. K17G showed a protein stability index of 2.8. For K17W, the protein stability index was 2.41. Variant K17A has a protein stability index of 3.17. Work on K17T yielded a protein stability index of 3.7. In the case of K17L, the protein stability index is reported as 2.15. Variant K17I has a protein stability index of 1.92. In the case of K17P, the protein stability index is reported as 3.41. K17N showed a protein stability index of 3.37. Variant K17S has a protein stability index of 4.07. K17E gave a protein stability index of 3.32. For K17Q, the protein stability index was 3.05. Work on K17R yielded a protein stability index of 2.8. Variant K17V has a protein stability index of 2.21. Variant K17H has a protein stability index of 2.98. In the case of K17Y, the protein stability index is reported as 3.14. K17F gave a protein stability index of 2.93. K17D gave a protein stability index of 3.89. For A18F, the protein stability index was 3.06. For A18I, the protein stability index was 1.89. With A18N the protein stability index was 3.38. With A18S the protein stability index was 3.32. For A18M, the protein stability index was 2.39. With A18D the protein stability index was 3.76. Variant A18W has a protein stability index of 2.65. For A18T, the protein stability index was 3.41. A18P showed a protein stability index of 3.1. Variant A18L has a protein stability index of 1.8. A18C gave a protein stability index of 2.72. In the case of A18R, the protein stability index is reported as 3.69. In the case of A18Y, the protein stability index is reported as 2.45. With A18E the protein stability index was 4.56. A18H showed a protein stability index of 2.54. With A18Q the protein stability index was 3.57. Work on A18V yielded a protein stability index of 2.72. With A18G the protein stability index was 3.21. A18K showed a protein stability index of 3.4. I14W gave a protein stability index of 2.05. Variant I14K has a protein stability index of 4.07. In the case of I14M, the protein stability index is reported as 3.77. Variant I14D has a protein stability index of 4.44. In the case of I14R, the protein stability index is reported as 3.44. With I14E the protein stability index was 3.53. I14N gave a protein stability index of 3.38. Work on I14T yielded a protein stability index of 4.42. I14H gave a protein stability index of 2.84. For I14F, the protein stability index was 2.32. In the case of I14C, the protein stability index is reported as 3.19. In the case of I14Y, the protein stability index is reported as 2.1. Work on I14L yielded a protein stability index of 2.88. I14A gave a protein stability index of 3.44. In the case of I14Q, the protein stability index is reported as 3.23. S15Q gave a protein stability index of 3.87. S15K gave a protein stability index of 3.09. S15M showed a protein stability index of 3.37. S15R gave a protein stability index of 2.79. With S15T the protein stability index was 3.27. S15G showed a protein stability index of 2.92. Work on S15E yielded a protein stability index of 4.21. In the case of S15Y, the protein stability index is reported as 2.81. In the case of S15L, the protein stability index is reported as 1.84. For S15C, the protein stability index was 3.67. In the case of S15D, the protein stability index is reported as 4.1. With S15I the protein stability index was 1.89. S15N gave a protein stability index of 2.62. With S15A the protein stability index was 2.84. Variant S15V has a protein stability index of 2.31. With S15P the protein stability index was 2.68. Variant S15W has a protein stability index of 2. S15H showed a protein stability index of 2.68. For S15F, the protein stability index was 2.44. Work on D20W yielded a protein stability index of 1.92. Variant D20R has a protein stability index of 2.94. D20C showed a protein stability index of 2.06. Work on D20A yielded a protein stability index of 2.92. For D20P, the protein stability index was 2.65. D20S gave a protein stability index of 2.45. With D20M the protein stability index was 1.94. In the case of D20V, the protein stability index is reported as 2.23. D20Q gave a protein stability index of 3. D20T showed a protein stability index of 2.92. D20K showed a protein stability index of 2.57. Work on D20G yielded a protein stability index of 2.31. Variant D20N has a protein stability index of 2.63. With D20H the protein stability index was 1.9. D20I showed a protein stability index of 1.52. D20Y showed a protein stability index of 1.8. For D20F, the protein stability index was 2.52.
